From FireProtDB (doi:10.1002/pro.370)
Values joined by “and” are separate entries in the source; they are usually repeats but may differ in a detail not shown here. Equal entries are not always repeated.

B1: Variable large protein wild type, O06878 (protein)
chain: MKKISSAILLTTFFVFINCKSQVADKDDPTNKFYQSVIQLGNGFLDVFTSFGGLVAEAFGFKSDPKKSDVKTYFTTVAAKLEKTKTDLNSLPKEKSDISSTTGKPDSTGSVGTAVEGAIKEVSELLDKLVKAVKTAEGASSGTAAIGEVVADADAAKVADKASVKGIAKGIKEIVEAAGGSEKLKAVAAAKGENNKGAGKLFGKAGAAAHGDSEAASKAAGAVSAVSGEQILSAIVTAADAAEQDGKKPEEAKNPIAAAIGDKDGGAEFGQDEMKKDDQIAAAIALRGMAKDGKFAVKDGEKEKAEGAIKGAAESAVRKVLGAITGLIGDAVSSGLRKVGDSVKAASKETPPALNK
B2: Guanyl-specific ribonuclease Sa wild type, P05798 (protein)
chain: DVSGTVCLSALPPEATDTLNLIASDGPFPYSQDGVVFQNRESVLPTQSYGYYHEYTVITPGARTRGTRRIITGEATQEDYYTGDHYATFSLIDQTC

Conditions: Borreliella burgdorferi; pH 7; 25 °C; Urea; CD; MOPS 30 mM; whole UniProt chain shown

Question: For B1, which denaturant m value is on record?
Answer: 3.86 kcal/mol/M

Question: And the “denaturant midpoint (higher = more stable)” value?
Answer: 1.19 M

Question: And the unfolding free energy?
Answer: 4.6 kcal/mol

Same assay, conditions: Kitasatospora aureofaciens; pH 3; 25 °C; Urea; CD; Glycine 30 mM; whole UniProt chain shown

Question: With B2 as the protein, how does the denaturant m value read?
Answer: 1.63 kcal/mol/M

Question: And the “denaturant midpoint (higher = more stable)” value?
Answer: 1.6 M

Question: And the unfolding free energy?
Answer: 2.6 kcal/mol

Same assay, conditions: Kitasatospora aureofaciens; pH 7; 25 °C; Urea; CD; MOPS 30 mM; whole UniProt chain shown

Question: What does the source list for B2?
Answer: denaturant m value: 1 kcal/mol/M and 0.94 kcal/mol/M; denaturant midpoint (higher = more stable): 6.4 M and 6.45 M; unfolding free energy: 6.4 kcal/mol and 6.1 kcal/mol
